As usually defined, the EC50 is the concentration needed to bring the measured effect to its halfway point. A low value points to greater potency.

The target in assay [1] is T1, TCR with TRBC1 on Jurkat cells (human, UniProt P01850 1-176).
T1 construct: whole, on cells; Only the constant domain is named; also called TRBC1 expressing Jurkat cell lines; transfected Jurkat cells
T1 TCR beta (looked up): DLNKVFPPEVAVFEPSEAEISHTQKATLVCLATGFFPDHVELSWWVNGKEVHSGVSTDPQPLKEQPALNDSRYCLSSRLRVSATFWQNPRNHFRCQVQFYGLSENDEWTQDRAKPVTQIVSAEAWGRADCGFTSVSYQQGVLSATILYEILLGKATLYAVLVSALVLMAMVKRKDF
The assay can be described thus: flow cytometry on TRBC1 expressing Jurkat cells. On the procedure:
Cells were washed with wash buffer (PBS+2% FBS) and the fluorescence of stained cells was measured on Novocyte flow cytometer. Cells were visualized on forward and sideward scatter and doublets were excluded. No secondary antibody control was used to establish background fluorescence and to gate on specific population. Background value was subtracted from main samples to get specific binding value.
Background: A flow cytometer gives signals particle by particle.

The target of assay [2] is T2, TRBC2 TCR on HPB-ALL cells (human, UniProt A0A5B9 1-178).
T2 construct: whole, on cells; Only the constant domain is named; also called HPB-ALL cell line that endogenously expresses TRBC2 TCR
T2 TCR beta (looked up): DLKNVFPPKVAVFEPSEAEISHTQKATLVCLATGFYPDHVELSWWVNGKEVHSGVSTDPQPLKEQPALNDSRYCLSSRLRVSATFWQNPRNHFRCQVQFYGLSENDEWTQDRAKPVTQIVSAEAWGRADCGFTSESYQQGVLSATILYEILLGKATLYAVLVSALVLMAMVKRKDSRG
Nature of the assay: flow cytometry cell binding to HPB-ALL cells (TRBC2), signal:background ratio.

B1: anti-TRBC1 antibody JOVI-1 mIgG2a (TRB1B1) (antibody, V domains shown)
VH: EVRLQQSGPDLIKPGASVKMSCKASGYTFTGYVMHWVKQRPGQGLEWIGFINPYNDDIQSNERFRGKATLTSDKSSTTAYMELSSLTSEDSAVYYCARGAGYNFDGAYRFFDFWGQGTTLTVSS
VL: DVVMTQSPLSLPVSLGDQASISCRSSQRLVHSNGNTYLHWYLQKPGQSPKLLIYRVSNRFPGVPDRFSGSGSGTDFTLKISRVEAEDLGIYFCSQSTHVPYTFGGGTKLEIK
notes: Mouse IgG2a monoclonal, commercially sourced; also called mJOVI-1; mouse anti-human TRBC1 clone JOVI-1 mAb
In assay [1], B1 showed an EC50 of 1 to 2 nM. Besides, the binding result in assay [2] is “no binding”.
